From the supplement of paper PMC7877785
± gives the uncertainty stated by the source.

Assay: self-splicing fitness, log relative to wild type (ln ratio); higher = more splicing; Tetrahymena group I intron in knt gene, E. coli kanamycin selection, DiMSum; sequences stand for … in CUCUCU…GGAGGGAAAAGUUAUCAGGCAUGCACCUGGUAGCUAGUCUUUAAACCAAUAGAUUGCAUCGGUUUAAAAGGCAAGACCGUCAAAUUGCGGGAAAGGGGUCAACAGCCGUUCAGUACCAAGUCUCAGGGGAAACUUUGAGAUGGCCUUGCAAAGGGUAUGGUAAUAAGCUGACGGACAUGGUCCUAACCACGCAGCCAAGUCCUAAGUCAACAGAUCUUCUGUUGAUAUGGAUGCAGUUCACAGACUAAAUGUCGGUCGGGGAAGAUGUAUUCUUCUCAUAAGAUAUAGUCGGACCUCUCCUUAAUGGGAGCUAGCGGAUGAAGUGAUGCAACACUGGAGCCGCUGGGAACUAAUUUGUAUGCGAAAGUAUAUUGAUUAGUUUUGGAGUACUCGUGGUCG
In short: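 DiMSum derived fitness as the error-weighted combination of fold changes across replicates, kanamycin versus no kanamycin, normalised to wild type. E. coli BL21(DE3) held the library, which randomised all eight P1ex-region intron nucleotides within the knt kanamycin-resistance gene on pET-22b(+). Six replicate transformations grew overnight at 37°C or 30°C on LB agar with or without 25 μg/mL kanamycin, also containing 100 μg/mL carbenicillin, 50 μM IPTG and 0.2% rhamnose, and pooled colonies were amplicon-sequenced on an Illumina HiSeq 2500.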

UAGGAGCAAUAUUACGGCGA
self-splicing fitness (ln) (30 °C): -1.51 ± 0.17
self-splicing fitness (ln) (37 °C): -1.46 ± 0.18

GUGUAGCAAUAUUACGGCGC
self-splicing fitness (ln) (30 °C): -2.06 ± 0.44
self-splicing fitness (ln) (37 °C): -0.968 ± 0.32

GGCGAGCAAUAUUACGCAAU
self-splicing fitness (ln) (30 °C): -2.22 ± 0.12
self-splicing fitness (ln) (37 °C): -0.788 ± 0.13

GGUAAGCAAUAUUACGGUCU
self-splicing fitness (ln) (30 °C): 0.187 ± 0.083
self-splicing fitness (ln) (37 °C): -0.0802 ± 0.087

CAUCAGCAAUAUUACGAGAC
self-splicing fitness (ln) (30 °C): -3.95 ± 0.23
self-splicing fitness (ln) (37 °C): -2.73 ± 0.16

ACAGAGCAAUAUUACGAAUA
self-splicing fitness (ln) (30 °C): -3.45 ± 0.32
self-splicing fitness (ln) (37 °C): -2.2 ± 0.35

AGGCAGCAAUAUUACGUGGG
self-splicing fitness (ln) (30 °C): -2.95 ± 0.095
self-splicing fitness (ln) (37 °C): -2.97 ± 0.15

GUGUAGCAAUAUUACGGCAU
self-splicing fitness (ln) (30 °C): -3.48 ± 0.41
self-splicing fitness (ln) (37 °C): -0.582 ± 0.2

UGGCAGCAAUAUUACGUAGU
self-splicing fitness (ln) (30 °C): -2.99 ± 0.15
self-splicing fitness (ln) (37 °C): -1.8 ± 0.2

CCUGAGCAAUAUUACGCAUC
self-splicing fitness (ln) (30 °C): -3.39 ± 0.44

CAGGAGCAAUAUUACGGCGG
self-splicing fitness (ln) (30 °C): -0.542 ± 0.074
self-splicing fitness (ln) (37 °C): -0.0448 ± 0.091

UUGAAGCAAUAUUACGAGCG
self-splicing fitness (ln) (30 °C): -0.107 ± 0.089
self-splicing fitness (ln) (37 °C): 0.65 ± 0.14

GCAGAGCAAUAUUACGGCCU
self-splicing fitness (ln) (37 °C): -1.69 ± 0.28

UGCAAGCAAUAUUACGGCGU
self-splicing fitness (ln) (30 °C): -1.24 ± 0.071
self-splicing fitness (ln) (37 °C): -0.6 ± 0.091

GAUUAGCAAUAUUACGCAGC
self-splicing fitness (ln) (30 °C): -2.35 ± 0.31

CGUAAGCAAUAUUACGCGUA
self-splicing fitness (ln) (30 °C): -3 ± 0.28
self-splicing fitness (ln) (37 °C): -2.9 ± 0.2

AGGUAGCAAUAUUACGUUGU
self-splicing fitness (ln) (30 °C): -3.385 ± 0.02
self-splicing fitness (ln) (37 °C): -1.95 ± 0.035

UGGGAGCAAUAUUACGCAGC
self-splicing fitness (ln) (37 °C): -3.01 ± 0.49

GUGCAGCAAUAUUACGGCUA
self-splicing fitness (ln) (30 °C): -0.0246 ± 0.077
self-splicing fitness (ln) (37 °C): 0.17 ± 0.096

GCGCAGCAAUAUUACGCUUG
self-splicing fitness (ln) (30 °C): -2.57 ± 0.12
self-splicing fitness (ln) (37 °C): -1.06 ± 0.12

CAUCAGCAAUAUUACGCCUU
self-splicing fitness (ln) (30 °C): -1.92 ± 0.12
self-splicing fitness (ln) (37 °C): -0.379 ± 0.12

CACUAGCAAUAUUACGUGGG
self-splicing fitness (ln) (30 °C): -3.99 ± 0.2
self-splicing fitness (ln) (37 °C): -3.1 ± 0.22

GUUAAGCAAUAUUACGGUGG
self-splicing fitness (ln) (30 °C): -3.52 ± 0.17
self-splicing fitness (ln) (37 °C): -1.78 ± 0.15

AUACAGCAAUAUUACGGGUG
self-splicing fitness (ln) (30 °C): -1.63 ± 0.065
self-splicing fitness (ln) (37 °C): -1 ± 0.073

CGGCAGCAAUAUUACGCUUA
self-splicing fitness (ln) (30 °C): -0.963 ± 0.071
self-splicing fitness (ln) (37 °C): -0.184 ± 0.073

CCGAAGCAAUAUUACGCUGA
self-splicing fitness (ln) (30 °C): -3.08 ± 0.27
self-splicing fitness (ln) (37 °C): -3.41 ± 0.42

UGUGAGCAAUAUUACGGCUC
self-splicing fitness (ln) (30 °C): -3.06 ± 0.44
self-splicing fitness (ln) (37 °C): -3.18 ± 0.47

UACCAGCAAUAUUACGCGUU
self-splicing fitness (ln) (30 °C): -1.64 ± 0.07
self-splicing fitness (ln) (37 °C): -0.917 ± 0.086

UACCAGCAAUAUUACGGCUA
self-splicing fitness (ln) (30 °C): 0.185 ± 0.066
self-splicing fitness (ln) (37 °C): 0.554 ± 0.089

AGUUAGCAAUAUUACGAGGA
self-splicing fitness (ln) (30 °C): -2.32 ± 0.26
self-splicing fitness (ln) (37 °C): -2.43 ± 0.25

CUGGAGCAAUAUUACGGACC
self-splicing fitness (ln) (30 °C): -3.79 ± 0.24
self-splicing fitness (ln) (37 °C): -2.04 ± 0.34

GAGGAGCAAUAUUACGAAGA
self-splicing fitness (ln) (30 °C): -2.19 ± 0.24
self-splicing fitness (ln) (37 °C): -1.95 ± 0.32

UGCCAGCAAUAUUACGAGGG
self-splicing fitness (ln) (30 °C): -2.61 ± 0.18
self-splicing fitness (ln) (37 °C): -1.94 ± 0.19

AGUUAGCAAUAUUACGGGAU
self-splicing fitness (ln) (30 °C): -3.18 ± 0.26
self-splicing fitness (ln) (37 °C): -1.46 ± 0.22

UGCUAGCAAUAUUACGUUAU
self-splicing fitness (ln) (30 °C): -2.22 ± 0.16
self-splicing fitness (ln) (37 °C): -2.33 ± 0.23

UUAAAGCAAUAUUACGCAAC
self-splicing fitness (ln) (30 °C): -3.92 ± 0.25
self-splicing fitness (ln) (37 °C): -1.75 ± 0.14

GAGUAGCAAUAUUACGUACU
self-splicing fitness (ln) (30 °C): -2.67 ± 0.15
self-splicing fitness (ln) (37 °C): -1.67 ± 0.16

CUCGAGCAAUAUUACGGGGC
self-splicing fitness (ln) (30 °C): -3.41 ± 0.18
self-splicing fitness (ln) (37 °C): -1.51 ± 0.16

CAAAAGCAAUAUUACGAGCC
self-splicing fitness (ln) (30 °C): -3.49 ± 0.3

UCUAAGCAAUAUUACGCAAC
self-splicing fitness (ln) (30 °C): -3.54 ± 0.17
self-splicing fitness (ln) (37 °C): -1.32 ± 0.2

CCGCAGCAAUAUUACGAGAC
self-splicing fitness (ln) (30 °C): -2.24 ± 0.22

GUCAAGCAAUAUUACGGGGU
self-splicing fitness (ln) (30 °C): -5.42 ± 0.25
self-splicing fitness (ln) (37 °C): -4.15 ± 0.19

AGCCAGCAAUAUUACGUGGC
self-splicing fitness (ln) (30 °C): -3.74 ± 0.19
self-splicing fitness (ln) (37 °C): -3.57 ± 0.29

CUGUAGCAAUAUUACGUCUG
self-splicing fitness (ln) (30 °C): -0.298 ± 0.088
self-splicing fitness (ln) (37 °C): 0.128 ± 0.1

GCUCAGCAAUAUUACGCGAU
self-splicing fitness (ln) (30 °C): -2.55 ± 0.15
self-splicing fitness (ln) (37 °C): -1.51 ± 0.14

UCCCAGCAAUAUUACGCUAU
self-splicing fitness (ln) (30 °C): -4.27 ± 0.21
self-splicing fitness (ln) (37 °C): -1.31 ± 0.11

UGUAAGCAAUAUUACGGAGG
self-splicing fitness (ln) (30 °C): -3.23 ± 0.21
self-splicing fitness (ln) (37 °C): -3.5 ± 0.33

CUUAAGCAAUAUUACGUUGG
self-splicing fitness (ln) (30 °C): -2.67 ± 0.15
self-splicing fitness (ln) (37 °C): -2.4 ± 0.14

UGUGAGCAAUAUUACGAUAG
self-splicing fitness (ln) (30 °C): -2.74 ± 0.24
self-splicing fitness (ln) (37 °C): -0.644 ± 0.2
